Reference: patent publication US20060160743A1 (SANFORD BURNHAM MEDICAL RESEARCH INSTITUTE, published 2006)
Where no end group is shown, it is not given here.

How the values were obtained:
[1] = biological target: T1, murine single Ig IL-1 receptor related protein (Sigirr/TIR8), full length (murine, UniProt Q9JLZ8 1-409); assay: competition: free peptide against CKRAVR phage on Sigirr/TIR8-transfected 293T cells
T1 construct: Expressed from full-length cDNA in a pMH6-derived plasmid in 293T cells
T1 sequence: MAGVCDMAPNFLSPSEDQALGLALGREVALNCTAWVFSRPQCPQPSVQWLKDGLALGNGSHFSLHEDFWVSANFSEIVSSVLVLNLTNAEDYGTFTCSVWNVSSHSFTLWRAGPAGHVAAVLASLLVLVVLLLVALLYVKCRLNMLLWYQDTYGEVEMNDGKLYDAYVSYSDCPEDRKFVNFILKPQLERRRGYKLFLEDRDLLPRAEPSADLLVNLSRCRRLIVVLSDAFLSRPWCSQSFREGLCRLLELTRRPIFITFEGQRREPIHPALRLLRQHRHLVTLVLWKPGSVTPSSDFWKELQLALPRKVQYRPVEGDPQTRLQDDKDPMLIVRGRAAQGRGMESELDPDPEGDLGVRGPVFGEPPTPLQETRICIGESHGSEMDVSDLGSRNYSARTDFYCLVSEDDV
Description: (§1) Receptor transfections and phage binding assays were performed as follows. 293T cells were transfected with pMH6-derived plasmids (Roche Diagnostics; Indianapolis, Ind.) encoding HLP/CRIP2, Sigirr/TIR8, MpcII-3-related protein and bc10 using the Fugene transfection reagent (Roche Diagnostics). Briefly, 10 μg of plasmid was mixed with 700 μl of serum-free DMEM and 30 μl of Fugene transfection reagent and incubated for 15 minutes at room temperature before the mixture was added to cells. After forty-eight hours, cells were detached from culture dishes using EDTA and washed once with PBS. Phage displaying CRPPR (SEQ ID NO: 1), CKRAVR (SEQ ID NO: 7), […] (SEQ ID NO: 11) or […] (SEQ ID NO: 12) and nonrecombinant control phage (1×10⁹ p.f.u) were incubated with transfected cells for two hours at 4° C. Unbound phage were removed by five washes with 1% BSA in PBS. Bound phage were rescued by addition of bacteria; binding efficiencies were determined by plaque assay as described above.
(§2) Peptides for competition assays were synthesized at The Burnham Institute peptide facility using Fmoc chemistry in a solid-phase synthesizer prior to purification by HPLC and confirmation of their identity by mass spectrometry. […] After five washes with 1% PBS, bound phage were rescued and quantitated by plaque assay.

[2] = biological target: T2, receptor clone 5 (carboxy-terminal 92 amino acids, residues 117 to 208, of heart LIM-protein / cysteine-rich … (murine, UniProt P36201 117-208 (rat entry))); assay: bacterial two-hybrid (BacterioMatch), peptide bait against heart cDNA target clone
T2 construct: Target clone of the bacterial two-hybrid screen; also called HLP clone; HLP/CRIP2 fragment; not shown: fusion partner encoded by the target vector of the mouse heart cDNA library (BacterioMatch two-hybrid); not described
T2 sequence: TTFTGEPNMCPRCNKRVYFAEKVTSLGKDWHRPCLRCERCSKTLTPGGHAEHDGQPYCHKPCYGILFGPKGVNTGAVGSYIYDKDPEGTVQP
Description: (§3) PCR products were digested with EcoRI and XhoI, and subcloned into the bait pBT plasmid (Stratagene; La Jolla, Calif.) to generate a recombinant library of baits designated “pBT-hp.” pBT-hp plasmids were transformed into XL1-Blue MRF' Kan competent cells, and 2 μl or 5 μl of cells plated on 100 mm LB-chloramphenicol plates to determine the total number of primary transformants. The remaining transformants were pooled and plated on 150 mm LB-chloramphenicol plates. […] The plates were then scraped, and bacteria harvested. After plating 2 μl and 5 μl of the harvested library in order to determine the size of the amplified library, the pool of pBT-hp plasmids was purified from the pooled bacteria using a commercially available maxiprep DNA column. Purified DNA was used to transform BacterioMatch® Two-Hybrid System reporter strain competent cells according to the manufacturer's instructions (Stratagene; La Jolla, Calif.).
(§4) Bacterial two-hybridization experiments were performed with the BacterioMatch® Two-Hybrid System (Stratagene) according to the manufacturer's instructions. Briefly, pBT-hp and heart cDNA library plasmids were co-transformed using 50 ng each plasmid. Aliquots (100 μl) of co-transformants were plated on selective LB plates (500 μg/ml carbenicillin) and incubated at 37° C. for 20 hours before scoring the plates for growth. […]

[3] = biological target: T3, receptor clone 36 (entire coding sequence of unnamed RIKEN Fantom protein product putatively similar to … (murine, UniProt Q9CZB0 1-169)); assay: as above
T3 construct: also called MpcII-3-related protein; not shown: fusion partner encoded by the target vector of the mouse heart cDNA library (BacterioMatch two-hybrid); not described
T3 sequence: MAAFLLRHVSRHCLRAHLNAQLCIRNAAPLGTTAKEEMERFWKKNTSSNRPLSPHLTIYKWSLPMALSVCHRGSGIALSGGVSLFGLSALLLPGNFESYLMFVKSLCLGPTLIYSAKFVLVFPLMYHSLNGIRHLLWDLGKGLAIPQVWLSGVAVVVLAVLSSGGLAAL
Description: as §3, §4

[4] = biological target: T4, murine cysteine-rich protein 2 / heart LIM-protein (HLP/CRIP2), full length (murine, UniProt Q9DCT8 1-208); assay: competition: free peptide against CRPPR phage on HLP/CRIP2-transfected 293T cells
T4 construct: also called ESP1
T4 sequence: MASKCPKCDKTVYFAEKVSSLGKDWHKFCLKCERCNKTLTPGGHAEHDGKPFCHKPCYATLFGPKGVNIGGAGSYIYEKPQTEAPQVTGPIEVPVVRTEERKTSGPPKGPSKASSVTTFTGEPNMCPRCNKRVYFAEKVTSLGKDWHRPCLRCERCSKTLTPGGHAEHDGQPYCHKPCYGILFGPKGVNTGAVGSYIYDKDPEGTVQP
Description: as §1, §2

[5] = biological target: T5, murine bladder cancer-associated protein homolog (bc10), full length (murine, UniProt P62951 1-87); assay: competition: free peptide against … phage on bc10-transfected 293T cells
T5 construct: Expressed from full-length cDNA in a pMH6-derived plasmid in 293T cells
T5 sequence: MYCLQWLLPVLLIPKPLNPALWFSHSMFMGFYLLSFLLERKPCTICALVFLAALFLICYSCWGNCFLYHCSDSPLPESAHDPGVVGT
Description: as §1, §2

B1: free synthetic peptide CKRAVR (SEQ ID NO: 7) (peptide)
peptide: CKRAVR
notes: also called free peptide CKRAVR; cognate peptide
B1: binds [1].

B2: CRPPR (SEQ ID NO: 1), peptide insert in bait plasmid pBT-hp (peptide)
chain: CRPPR
notes: Hybrid bait protein of the bacterial two-hybrid screen; not shown: fusion partner encoded by bait plasmid pBT (BacterioMatch two-hybrid); not described, position relative to the peptide n
B2: binds [2].

B3: CRSTRANPC (SEQ ID NO: 11), peptide insert in bait plasmid pBT-hp (peptide)
chain: CRSTRANPC
modifications: cysteine pairing not given here; also: part of pBT bait fusion protein, position of partner not given here
notes: not shown: fusion partner encoded by bait plasmid pBT (BacterioMatch two-hybrid); not described, position relative to the peptide n
B3: binds [3].

B4: free synthetic peptide CRPPR (SEQ ID NO: 1) (peptide)
peptide: CRPPR
notes: also called CRPPR peptide
B4: binds [4].

B5: free synthetic peptide CPKTRRVPC (SEQ ID NO: 12) (peptide)
peptide: CPKTRRVPC
notes: also called cognate peptide
B5: binds [5].
